Common to all, as to assay: negative-staining electron microscopy
In experiment [1] the target is F97L-HBc capsids (Hepatitis B virus (genotype D; strain ayw)) (UniProt P03146).
Experiment [2] deals with L60V-HBc capsids (Hepatitis B virus (genotype D; strain ayw)) (UniProt P03146).
Experiment [3] addresses P5T-HBc capsids (Hepatitis B virus (genotype D; strain ayw)) (UniProt P03146).

Regarding “F97L-HBc capsids (from UniProt P03146 1-183) (natural protein)”, in experiment [1], the stoichiometry N (subunits per capsid) was determined as 240. Substance “L60V-HBc capsids (from UniProt P03146 1-183) (natural protein)” returned a stoichiometry N (subunits per capsid) in experiment [2] of 240. In experiment [3], “P5T-HBc capsids (from UniProt P03146 1-183) (natural protein)” registered a stoichiometry N (subunits per capsid) of 240.
